The target of this assay is ERp57-Cys57Ser–Cys406Ser double mutant (mutated ERp57) (human) (UniProt P30101). The assay can be described thus: ELISA.

As usually defined, the Kd is the concentration at which binding is half-saturated. Higher therefore signals lower affinity.

“recombinant N-terminal region of β-DG, β-DG(654–750), biotinylated (domain or fragment)”: the Kd was 10 µM.
